These results are taken from article PMC8505757 (Journal of Molecular Biology, 2021).

Non-standard residues stand in square brackets, D forms with d. pS = N[C@@H](COP(=O)(O)O)C(=O)O

This assay concerns the target T1, 14-3-3σΔC (human, UniProt P31947 1-231).
T1 sequence (looked up): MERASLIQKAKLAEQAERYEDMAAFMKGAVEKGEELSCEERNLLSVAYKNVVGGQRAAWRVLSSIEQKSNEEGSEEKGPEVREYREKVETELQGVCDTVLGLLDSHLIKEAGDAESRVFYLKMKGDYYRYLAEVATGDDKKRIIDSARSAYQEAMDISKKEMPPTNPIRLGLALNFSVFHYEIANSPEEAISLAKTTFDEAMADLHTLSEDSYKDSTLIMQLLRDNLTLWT
Briefly: crystal structure.

B1: Ataxin-1 pS776 peptide (AcNH-RKRRWpSAPESR-NH2) (peptide)
peptide: Ac-RKRRW[pS]APESR-NH2
SMILES: CC(=O)N[C@@H](CCCNC(=N)N)C(=O)N[C@@H](CCCCN)C(=O)N[C@@H](CCCNC(=N)N)C(=O)N[C@@H](CCCNC(=N)N)C(=O)N[C@@H](Cc1c[nH]c2ccccc12)C(=O)N[C@@H](COP(=O)(O)O)C(=O)N[C@@H](C)C(=O)N1CCC[C@H]1C(=O)N[C@@H](CCC(=O)O)C(=O)N[C@@H](CO)C(=O)N[C@@H](CCCNC(=N)N)C(N)=O
As for B1, the binding result is “binds”.
